Assay [1] deals with T1, α-CCR2 heavy-LgBiT (SEQ ID NO: 158).
T1 construct: VH-CH1-linker-LgBiT; germline VH3-7*01
As to the kind of experiment: NanoBiT, HC-LgBiT:LC-SmBiT:competing LC 1:1:1; competing kappa LC m42 (SEQ ID NO: 133).

The target is the same in assay [2]. As to the kind of experiment: NanoBiT, HC-LgBiT:LC-SmBiT:competing LC 1:1:1; competing kappa LC m12 (SEQ ID NO: 103).
For assay [3] the target is unchanged. Put plainly: NanoBiT, HC-LgBiT:LC-SmBiT:competing LC 1:1:1; competing kappa LC m6 (SEQ ID NO: 97).
The target is the same in assay [4]. As to the kind of experiment: NanoBiT, HC-LgBiT:LC-SmBiT:competing LC 1:1:1; competing kappa LC m24 (SEQ ID NO: 115).
Assay [5] shares this target. Put plainly: NanoBiT, HC-LgBiT:LC-SmBiT:competing LC 1:1:1; competing kappa LC m15 (SEQ ID NO: 106).
Assay [6] shares this target. As to the kind of experiment: NanoBiT, HC-LgBiT:LC-SmBiT:competing LC 1:1:1; competing kappa LC m9 (SEQ ID NO: 100).
Assay [7] shares this target. Put plainly: NanoBiT, HC-LgBiT:LC-SmBiT:competing LC 1:1:1; competing kappa LC m18 (SEQ ID NO: 109).
Assay [8] addresses T2, α-HER3 heavy-LgBiT (SEQ ID NO: 143).
T2 construct: VH-CH1-linker-LgBiT; germline VH3-9*01
Put plainly: NanoBiT, HC-LgBiT:LC-SmBiT:competing LC 1:1:1; competing kappa LC m21 (SEQ ID NO: 112).

The target is the same in assay [9]. As to the kind of experiment: NanoBiT, HC-LgBiT:LC-SmBiT:competing LC 1:1:1; competing kappa LC m42 (SEQ ID NO: 133).
The target is the same in assay [10]. As to the kind of experiment: NanoBiT, HC-LgBiT:LC-SmBiT:competing LC 1:1:1; competing kappa LC m27 (SEQ ID NO: 118).
Assay [11] shares this target. As to the kind of experiment: NanoBiT, HC-LgBiT:LC-SmBiT:competing LC 1:1:1; competing kappa LC m12 (SEQ ID NO: 103).
Assay [12] has the same target. Put plainly: NanoBiT, HC-LgBiT:LC-SmBiT:competing LC 1:1:1; competing kappa LC m6 (SEQ ID NO: 97).
Assay [13] has the same target. As to the kind of experiment: NanoBiT, HC-LgBiT:LC-SmBiT:competing LC 1:1:1; competing kappa LC m24 (SEQ ID NO: 115).
The target is the same in assay [14]. Put plainly: NanoBiT, HC-LgBiT:LC-SmBiT:competing LC 1:1:1; competing kappa LC m36 (SEQ ID NO: 127).
Assay [15] shares this target. Put plainly: NanoBiT, HC-LgBiT:LC-SmBiT:competing LC 1:1:1; competing kappa LC m15 (SEQ ID NO: 106).
For assay [16] the target is unchanged. As to the kind of experiment: NanoBiT, HC-LgBiT:LC-SmBiT:competing LC 1:1:1; competing kappa LC m33 (SEQ ID NO: 124).
The target of assay [17] is T3, α-IL23 heavy-LgBiT (SEQ ID NO: 140).
T3 construct: VH-CH1-linker-LgBiT; germline VH5-51*01
As to the kind of experiment: NanoBiT, HC-LgBiT:LC-SmBiT:competing LC 1:1:1; competing kappa LC m27 (SEQ ID NO: 118).

Assay [18] has the same target. Put plainly: NanoBiT, HC-LgBiT:LC-SmBiT:competing LC 1:1:1; competing kappa LC m6 (SEQ ID NO: 97).
For assay [19] the target is unchanged. Put plainly: NanoBiT, HC-LgBiT:LC-SmBiT:competing LC 1:1:1; competing kappa LC m24 (SEQ ID NO: 115).
For assay [20] the target is unchanged. Put plainly: NanoBiT, HC-LgBiT:LC-SmBiT:competing LC 1:1:1; competing kappa LC m33 (SEQ ID NO: 124).
In assay [21] the target is T4, α-CCR2 heavy-LgBiT (SEQ ID NO: 155).
T4 construct: VH-CH1-linker-LgBiT; germline VH1-2*01
Put plainly: NanoBiT, HC-LgBiT:LC-SmBiT:competing LC 1:1:1; competing kappa LC m42 (SEQ ID NO: 133).

Assay [22] has the same target. As to the kind of experiment: NanoBiT, HC-LgBiT:LC-SmBiT:competing LC 1:1:1; competing kappa LC m24 (SEQ ID NO: 115).
The target is the same in assay [23]. Put plainly: NanoBiT, HC-LgBiT:LC-SmBiT:competing LC 1:1:1; competing kappa LC m36 (SEQ ID NO: 127).
The target is the same in assay [24]. As to the kind of experiment: NanoBiT, HC-LgBiT:LC-SmBiT:competing LC 1:1:1; competing kappa LC m33 (SEQ ID NO: 124).
The target of assay [25] is T5, α-CTLA4 heavy-hCHIg_Knob_Cys (SEQ ID NO: 168) (Homo sapiens (Human), UniProt P0DOX5 1-449 = IgG part).
T5 construct: full heavy chain, human Fc knob; Fab analysed after papain cleavage in the MS assay; germline VH3-30*01; also called HCP2 of multispecific molecules 3, 4, 5, 9
Put plainly: intact MS of papain-cleaved multispecific molecule 3; Fab 'Kappa heavy chain/lambda light chain' not observed.

For assay [26], the target named is T6, α-IL12β heavy-hCHIg_Hole_Cys (SEQ ID NO: 170) (Homo sapiens (Human), UniProt P0DOX5 1-449 = IgG part).
T6 construct: full heavy chain, human Fc hole; Fab analysed after papain cleavage in the MS assay; germline VH3-33*01; also called HCP1 of multispecific molecules 3 and 9
Put plainly: intact MS of papain-cleaved multispecific molecule 3; Fab of this pairing observed (observed mass, Da).

The target of assay [27] is T7, α-complement C5 heavy-LgBiT (SEQ ID NO: 152).
T7 construct: VH-CH1-linker-LgBiT; germline VH1-69*01
As to the kind of experiment: NanoBiT, HC-LgBiT:LC-SmBiT:competing LC 1:1:1; competing kappa LC m42 (SEQ ID NO: 133).

B1: α-CCR2 light-SmBiT (SEQ ID NO: 159) (other)
light: QAGLTQPPSVSKGLRQTATLTCTGNSNNVGNQGAAWLQQHQGHPPKLLFYRNNNRASGISERLSASRSGNTASLTITGLQPEDEADYYCLTWDSSLSVVVFGGGTKLTVLGQPKANPTVTLFPPSSEELQANKATLVCLISDFYPGAVTVAWKADGSPVKAGVETTKPSKQSNNKYAASSYLSLTPEQWKSHRSYSCQVTHEGSTVEKTVAPTECSGSSGGGGSGGGGSSGGVTGYRLFEEIL
notes: lambda light chain-linker-SmBiT; germline Vl10-54*01
On to B1, for which the Percent pairing in assay [1] came to 99%; in [2] it was 100%; in assay [3] it was 89%; in assay [4], 97%; in assay [5], 98%; in [6], 99%. In [7], this molecule returned a Percent pairing of 95%.

B2: α-HER3 light-SmBiT (SEQ ID NO: 144) (other)
light: SYELTQDPAVSVALGQTVRITCQGDSLRSYYASWYQQKPGQAPVLVIYGKNNRPSGIPDRFSGSTSGNSASLTITGAQAEDEADYYCNSRDSPGNQWVFGGGTKVTVLGGQPKANPTVTLFPPSSEELQANKATLVCLISDFYPGAVTVAWKADGSPVKAGVETTKPSKQSNNKYAASSYLSLTPEQWKSHRSYSCQVTHEGSTVEKTVAPTECSGSSGGGGSGGGGSSGGVTGYRLFEEIL
notes: lambda light chain-linker-SmBiT; germline Vl3-19*01
Turning to B2, the Percent pairing in [8] stood at 100%; in [9] it was 100%; in [10] it was 90%; in assay [11] it was 80%; in [12], 100%; in assay [13], 86%. For the same molecule, the Percent pairing worked out at 100% in [14], 93% in [15] and 100% in assay [16].

B3: α-IL23 light-SmBiT (SEQ ID NO: 141) (other)
light: QSVLTQPPSVSGAPGQRVTISCTGSSSNIGSGYDVHWYQQLPGTAPKLLIYGNSKRPSGVPDRFSGSKSGTSASLAITGLQSEDEADYYCASWTDGLSLVVFGGGTKLTVLGQPKANPTVTLFPPSSEELQANKATLVCLISDFYPGAVTVAWKADGSPVKAGVETTKPSKQSNNKYAASSYLSLTPEQWKSHRSYSCQVTHEGSTVEKTVAPTECSGSSGGGGSGGGGSSGGVTGYRLFEEIL
notes: lambda light chain-linker-SmBiT; germline Vl1-40*01
In the case of B3, the Percent pairing in assay [17] is 91%; in assay [18] it was 96%; in assay [19], 93%; in assay [20] it was 100%.

B4: α-CCR2 light-SmBiT (SEQ ID NO: 156) (other)
light: LPVLTQPPSVSKGLRQTATLTCTGNSNNVGNQGAAWLQQHQGQPPKLLSYRNHNRPSGVSERFSPSRSGDTSSLTITGLQPEDEADYYCLAWDSSLRAFVFGTGTKLTVLGQPKANPTVTLFPPSSEELQANKATLVCLISDFYPGAVTVAWKADGSPVKAGVETTKPSKQSNNKYAASSYLSLTPEQWKSHRSYSCQVTHEGSTVEKTVAPTECSGSSGGGGSGGGGSSGGVTGYRLFEEIL
notes: as for B1
For B4, the Percent pairing worked out at 100% in assay [21], 90% in assay [22], 77% in [23] and 80% in assay [24].

B5: α-IL12β light (SEQ ID NO: 163) (other)
light: QSVLTQPPSVSGAPGQRVTISCSGSRSNIGSNTVKWYQQLPGTAPKLLIYYNDQRPSGVPDRFSGSKSGTSASLAITGLQAEDEADYYCQSYDRYTHPALLFGTGTKVTVLGQPKANPTVTLFPPSSEELQANKATLVCLISDFYPGAVTVAWKADGSPVKAGVETTKPSKQSNNKYAASSYLSLTPEQWKSHRSYSCQVTHEGSTVEKTVAPTECS
notes: unmodified lambda light chain; germline Vl1-44*01; also called LLCP of multispecific molecule 3
Regarding B5, the binding result in assay [25] is on record as “no binding”; in assay [26] it was “binds”.

B6: α-complement C5 light-SmBiT (SEQ ID NO: 153) (other)
light: SYELTQPLSVSVALGQTARITCSGDSIPNYYVYWYQQKPGQAPVLVIYDDSNRPSGIPERFSGSNSGNTATLTISRAQAGDEADYYCQSFDSSLNAEVFGGGTKLTVLGQPKANPTVTLFPPSSEELQANKATLVCLISDFYPGAVTVAWKADGSPVKAGVETTKPSKQSNNKYAASSYLSLTPEQWKSHRSYSCQVTHEGSTVEKTVAPTECSGSSGGGGSGGGGSSGGVTGYRLFEEIL
notes: lambda light chain-linker-SmBiT; germline Vl3-9*01
B6 returned a Percent pairing in [27] of 79%.

For the origin of these results see US20230272119A1 (MARENGO THERAPEUTICS, published 2023).
